Target: the molecule itself
Experiment: cryo-EM structure; purified AE2 in 50 μM GDN, 150 mM NaCl, 20 mM HEPES pH 7.4; Titan Krios 300 kV; homodimer

Row | Protein | stoichiometry N
1 | Full-length canonical human AE2 (isoform 1), wild type (natural protein, UniProt P04920-1 1-1241, looked up, Anion exchanger 2 (AE2, SLC4A2), human, isoform a, UniProtKB P04920-1, full length; Full-length protein was purified, but only the TMDs are resolved in the map; the NTD, parts of EL3, EL4, EL6 and the C-terminus are not modelled; also called Anion exchanger 2; hAE2; source: HEK293F (FreeStyle 293 F) cells, BacMam system, purified (LMNG/CHS extraction, Ni-NTA, TEV, Superose 6 in GDN); not shown: …) MSSAPRRPAKGADSFCTPEPESLGPGTPGFPEQEEDELHRTLGVERFEEILQEAGSRGGEEPGRSYGEEDFEYHRQSSHHIHHPLSTHLPPDARRRKTPQGPGRKPRRRPGASPTGETPTIEEGEEDEDEASEAEGARALTQPSPVSTPSSVQFFLQEDDSADRKAERTSPSSPAPLPHQEATPRASKGAQAGTQVEEAEAEAVAVASGTAGGDDGGASGRPLPKAQPGHRSYNLQERRRIGSMTGAEQALLPRVPTDEIEAQTLATADLDLMKSHRFEDVPGVRRHLVRKNAKGSTQSGREGREPGPTPRARPRAPHKPHEVFVELNELLLDKNQEPQWRETARWIKFEEDVEEETERWGKPHVASLSFRSLLELRRTLAHGAVLLDLDQQTLPGVAHQVVEQMVISDQIKAEDRANVLRALLLKHSHPSDEKDFSFPRNISAGSLGSLLGHHHGQGAESDPHVTEPLMGGVPETRLEVERERELPPPAPPAGITRSKSKHELKLLEKIPENAEATVVLVGCVEFLSRPTMAFVRLREAVELDAVLEVPVPVRFLFLLLGPSSANMDYHEIGRSISTLMSDKQFHEAAYLADEREDLLTAINAFLDCSVVLPPSEVQGEELLRSVAHFQRQMLKKREEQGRLLPTGAGLEPKSAQDKALLQMVEAAGAAEDDPLRRTGRPFGGLIRDVRRRYPHYLSDFRDALDPQCLAAVIFIYFAALSPAITFGGLLGEKTQDLIGVSELIMSTALQGVVFCLLGAQPLLVIGFSGPLLVFEEAFFSFCSSNHLEYLVGRVWIGFWLVFLALLMVALEGSFLVRFVSRFTQEIFAFLISLIFIYETFYKLVKIFQEHPLHGCSASNSSEVDGGENMTWAGARPTLGPGNRSLAGQSGQGKPRGQPNTALLSLVLMAGTFFIAFFLRKFKNSRFFPGRIRRVIGDFGVPIAILIMVLVDYSIEDTYTQKLSVPSGFSVTAPEKRGWVINPLGEKSPFPVWMMVASLLPAILVFILIFMETQITTLIISKKERMLQKGSGFHLDLLLIVAMGGICALFGLPWLAAATVRSVTHANALTVMSKAVAPGDKPKIQEVKEQRVTGLLVALLVGLSIVIGDLLRQIPLAVLFGIFLYMGVTSLNGIQFYERLHLLLMPPKHHPDVTYVKKVRTLRMHLFTALQLLCLALLWAVMSTAASLAFPFILILTVPLRMVVLTRIFTDREMKCLDANEAEPVFDEREGVDEYNEMPMPV | 2
2 | Full-length human AE2 with R932A/K1147A/H1148A mutations (natural protein, UniProt P04920-1 1-1241, looked up, No PIP2 in the map; NTD resolved; also called AE2_(IF/REST); mutant AE2; not shown: GFP, C-terminal, cleaved; His tag, C-terminal, cleaved) MSSAPRRPAKGADSFCTPEPESLGPGTPGFPEQEEDELHRTLGVERFEEILQEAGSRGGEEPGRSYGEEDFEYHRQSSHHIHHPLSTHLPPDARRRKTPQGPGRKPRRRPGASPTGETPTIEEGEEDEDEASEAEGARALTQPSPVSTPSSVQFFLQEDDSADRKAERTSPSSPAPLPHQEATPRASKGAQAGTQVEEAEAEAVAVASGTAGGDDGGASGRPLPKAQPGHRSYNLQERRRIGSMTGAEQALLPRVPTDEIEAQTLATADLDLMKSHRFEDVPGVRRHLVRKNAKGSTQSGREGREPGPTPRARPRAPHKPHEVFVELNELLLDKNQEPQWRETARWIKFEEDVEEETERWGKPHVASLSFRSLLELRRTLAHGAVLLDLDQQTLPGVAHQVVEQMVISDQIKAEDRANVLRALLLKHSHPSDEKDFSFPRNISAGSLGSLLGHHHGQGAESDPHVTEPLMGGVPETRLEVERERELPPPAPPAGITRSKSKHELKLLEKIPENAEATVVLVGCVEFLSRPTMAFVRLREAVELDAVLEVPVPVRFLFLLLGPSSANMDYHEIGRSISTLMSDKQFHEAAYLADEREDLLTAINAFLDCSVVLPPSEVQGEELLRSVAHFQRQMLKKREEQGRLLPTGAGLEPKSAQDKALLQMVEAAGAAEDDPLRRTGRPFGGLIRDVRRRYPHYLSDFRDALDPQCLAAVIFIYFAALSPAITFGGLLGEKTQDLIGVSELIMSTALQGVVFCLLGAQPLLVIGFSGPLLVFEEAFFSFCSSNHLEYLVGRVWIGFWLVFLALLMVALEGSFLVRFVSRFTQEIFAFLISLIFIYETFYKLVKIFQEHPLHGCSASNSSEVDGGENMTWAGARPTLGPGNRSLAGQSGQGKPRGQPNTALLSLVLMAGTFFIAFFLRKFKNSRFFPGRIARVIGDFGVPIAILIMVLVDYSIEDTYTQKLSVPSGFSVTAPEKRGWVINPLGEKSPFPVWMMVASLLPAILVFILIFMETQITTLIISKKERMLQKGSGFHLDLLLIVAMGGICALFGLPWLAAATVRSVTHANALTVMSKAVAPGDKPKIQEVKEQRVTGLLVALLVGLSIVIGDLLRQIPLAVLFGIFLYMGVTSLNGIQFYERLHLLLMPPAAHPDVTYVKKVRTLRMHLFTALQLLCLALLWAVMSTAASLAFPFILILTVPLRMVVLTRIFTDREMKCLDANEAEPVFDEREGVDEYNEMPMPV | 2

Reference: article PMC10810954, “Structural and functional insights into the lipid regulation of human anion exchanger 2” (Nature Communications, 2024)
